B1: Tripartite motif-containing protein 49C, residues 87 to 133; numbered along this chain, P0CI26 (parent)
chain: SSEEQMCGTHRETKKIFCEVDRSLLCLLCSSSQEHRYHRHRPIEWAA
B2: Tyrosine-protein kinase BTK, residues 215 to 273; numbered along this chain, Q06187 (parent)
chain: ELKKVVALYDYMPMNANDLQLRKGDEYFILEESNLPWWRARDKNGQEGYIPSNYVTEAE

Variants of: B1
Assay: abundance fitness (aPCA) (normalised: wild type 0, dead -1); higher = more abundant; growth selection in yeast, the domain comes from the species named
Conditions: Homo sapiens

Abundance fitness: each site, then its substitutions
S30: G -0.319, M -0.176, E -0.165, V -0.257, K -0.72, F -0.776, R -0.697, H -0.528, N -0.555
A46: F -0.184, D 0.09, H -0.276, P 0.2, I -0.863, N -0.124, G 0.056, Q -0.085, S 0.056
R39: M -0.155, E 0.203, D 0.257, V -0.092, F -0.356, A -0.103, N 0.363, W -0.314
R22: L -0.327, S -0.132, G 0.174, I -0.588, M -0.251
S1: A -0.49, Y -0.277, G -0.526
R41: S 0.011, D 0.496, Y -0.659, T -0.292
I43: R -0.385, V 0.023, T -0.54, A 0.405, G -0.215
E4: W -0.577, F -0.59, S -0.244, M 0.015, C -0.591
C18: N -0.286, K -0.381, Q -0.731, R -0.736, S -0.327, Y -0.801, I -0.783, A -0.907
E19: Q -0.368, D -0.297, F -0.927, A -0.498, H -0.944, V -0.586
Y37: V -0.243, T 0.051, Q 0.155, C -0.032, N 0.226, L 0.127, P -0.273
S32: H -0.483, N -0.134, Y -0.224, D -0.041, C -0.414, W -0.464, M -0.141, E -0.364, Q -0.116, V -0.301, F -0.465, T -0.278
H40: W -0.608, R -0.563, M -0.633, K -0.908, Q -0.129
Q5: L -0.044, I -0.291, H -0.315, N -0.337, A -0.358, F -0.424, M 0.054, P -0.251, D 0.159
H35: W -0.846, T -0.929, K -0.929, Y -1.06, F -0.75
V20: G -0.485, D 0.164, H -0.033
A47: E -0.375, M -0.025, L -0.493
E44: L -0.52, Y -0.652, G -0.181, C -0.525, I -0.359, H -0.738, T -0.2, M -0.488, K -0.298
S23: H -0.277, R 0.058, T 0.409, M -0.062
P42: Y -0.26, R -0.221, K 0.11, L -0.324, A 0.022
L27: E 0.437, Y 0.059, P 0.132, S 0.058, D 0.158
R36: A 0.037, V -0.213, T 0.001, L -0.152, Q -0.199, K -0.15, W -0.66, I -0.217
M6: S -0.57, D -0.875, Q -0.273, Y -0.344
T9: I -0.074, R -0.078, N -0.417, F -0.469, Y -0.183, C -0.565, H -0.153, L 0.151, Q 0.057, S -0.127
C7: Q -0.832, D -0.589, V -0.722, I -0.797, T -0.861
D21: G -0.357, S -0.023, L -0.573, K 0.022, M -0.604, W -0.198, E -0.142, P -1.02
H10: R -0.728, N -0.836, L -0.256, W -0.976, T -0.772, F -1.07, I -1, S -0.613, Y -0.855, K -0.714
S31: P -0.544, R -0.017, D -0.251, Y -0.244, M -0.408, V -0.122, T -0.328, I -0.065
K15: C -0.382, L -0.3, M -0.578, V -0.408, E 0.037, D -0.571
L28: Y 0.056, K 0.003, F -0.422, C -0.389, S 0.12, W -0.368, E 0.189
G8: S -0.086, A -0.005, Q -0.104, F 0.229, K -0.02
R11: P -0.441, A -0.134, W -0.36, G -0.069
E12: L 0, C -0.01, W -0.439, R 0.021, G -0.01, K 0.265
E3: W -0.156, S -0.15, L -0.176, F -0.346, I -0.492, G -0.147, M -0.275, Y -0.592, T -0.487
L24: G -0.253, P -0.217, Y -0.085, R -0.213, C -0.174, V -0.139, W -0.095, Q -0.159
I16: L -0.372, V -0.129, H -0.557, P -0.574, R -0.497, D -0.392, M -0.107, N -0.677
Q33: Y 0.159, T -0.116, H -0.197, F -0.237, P 0.391
H38: K -0.607, E -0.33, D -0.521, W -0.708, A -0.573
C26: M -1.08, S -0.777, V -1.1, K -0.894, Q -0.776, A -0.891, T -1.05
E34: P -0.834, D 0.041, H -0.046, M -0.496, C -0.514, I -0.818, Q -0.41
F17: D -0.726, G -0.664, H -0.598, I -0.464, S -0.755, M -0.062
L25: N -0.502, Q -0.388, F -0.581, D -0.725, V 0.103, E -0.586
S2: V -0.29, E -0.222, A -0.21, F 0.205
K14: D -0.303, R 0.02, N -0.419, M -0.199, Q -0.328, E -0.173, F -0.811, V -0.33
W45: F 0.153, Q 0.224, M 0.255
C29: N -0.816, P -0.715, A -0.675, G -0.716, W -0.815, S -1.06, H -0.418, M -0.935
T13: L -0.21, G -0.196, W -0.436, F -0.232, R -0.128, I 0.046, H 0.006

Variants of: B2
Assay: as above
Conditions: Homo sapiens

Abundance fitness of substitutions, site by site:
L2: K -0.095, M -0.055, F 0.011, V -0.116, N 0.012, R -0.075, E -0.126, G -0.018, T -0.161, A -0.093, Q -0.013, C -0.177, H -0.167, P -0.136, S -0.075, I -0.089, W -0.088
E1: R -0.15, P -0.305, A -0.172, C -0.252, T -0.288, D -0.103, I -0.106, F -0.094, Q -0.121, L -0.074, Y -0.062, N -0.012, K -0.035, W -0.088, H -0.174, V -0.074

Reference: the Human Domainome abundance scans (Beltran et al. 2025)
